PMC5057043

What was measured:
[1] = target: Frizzled-7 (microscale thermophoresis) (UniProt O75084); assay: MST
[2] = target: Frizzled-10 (microscale thermophoresis) (UniProt Q9ULW2); assay: MST
Chain of Frizzled-10 (microscale thermophoresis) (Q9ULW2 21-581): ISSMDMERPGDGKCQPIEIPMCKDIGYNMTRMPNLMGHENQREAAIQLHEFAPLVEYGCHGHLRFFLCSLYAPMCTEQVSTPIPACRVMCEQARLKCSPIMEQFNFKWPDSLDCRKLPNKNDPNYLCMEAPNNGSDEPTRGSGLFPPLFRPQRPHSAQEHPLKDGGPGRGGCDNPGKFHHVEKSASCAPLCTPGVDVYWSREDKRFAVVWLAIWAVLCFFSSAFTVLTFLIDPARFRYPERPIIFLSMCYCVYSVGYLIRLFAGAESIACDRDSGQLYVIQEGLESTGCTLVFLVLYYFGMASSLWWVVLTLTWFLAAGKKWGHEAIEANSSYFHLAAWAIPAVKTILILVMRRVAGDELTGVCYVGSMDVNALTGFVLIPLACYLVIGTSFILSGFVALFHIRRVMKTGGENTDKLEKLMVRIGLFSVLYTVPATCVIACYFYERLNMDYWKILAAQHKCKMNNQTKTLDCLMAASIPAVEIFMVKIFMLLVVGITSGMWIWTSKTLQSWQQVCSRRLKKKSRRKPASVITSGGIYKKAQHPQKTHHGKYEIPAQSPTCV

Chain of Human OLFM4 protein (Q6UX06 21-510): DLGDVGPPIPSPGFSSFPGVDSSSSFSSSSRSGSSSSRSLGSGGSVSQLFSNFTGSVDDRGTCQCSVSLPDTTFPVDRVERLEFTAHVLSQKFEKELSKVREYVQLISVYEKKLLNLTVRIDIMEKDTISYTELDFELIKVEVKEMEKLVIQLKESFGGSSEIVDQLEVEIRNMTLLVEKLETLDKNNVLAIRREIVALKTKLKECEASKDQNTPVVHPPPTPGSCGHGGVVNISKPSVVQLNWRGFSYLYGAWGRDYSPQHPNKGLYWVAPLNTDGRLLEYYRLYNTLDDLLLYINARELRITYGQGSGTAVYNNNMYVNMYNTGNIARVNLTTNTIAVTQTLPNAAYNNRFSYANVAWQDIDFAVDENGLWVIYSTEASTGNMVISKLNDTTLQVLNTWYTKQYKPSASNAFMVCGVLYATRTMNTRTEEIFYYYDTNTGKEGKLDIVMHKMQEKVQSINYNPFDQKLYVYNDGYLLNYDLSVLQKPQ

Kd [1]: 2.5 µM
Kd [2]: 10 µM
Substance: Human OLFM4 protein (from UniProt Q6UX06 21-510) (natural protein)
